Reference: patent publication US20220403048A1 (CANCER RESEARCH TECHNOLOGY, published 2022)

T1: recombinant human trimeric ARG2 enzyme (construct not given) (human, UniProt P78540 23-354)
T1 sequence (looked up): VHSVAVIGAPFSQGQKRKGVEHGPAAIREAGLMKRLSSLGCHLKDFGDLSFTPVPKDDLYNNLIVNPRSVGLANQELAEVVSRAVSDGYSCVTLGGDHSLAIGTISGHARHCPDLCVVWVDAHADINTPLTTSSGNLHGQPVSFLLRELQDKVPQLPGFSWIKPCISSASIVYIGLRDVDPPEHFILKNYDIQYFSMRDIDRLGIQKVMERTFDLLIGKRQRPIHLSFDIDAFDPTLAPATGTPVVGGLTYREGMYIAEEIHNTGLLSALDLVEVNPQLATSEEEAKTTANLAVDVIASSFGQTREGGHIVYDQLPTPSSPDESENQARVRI

T2: biotinylated recombinant human trimeric ARG2 enzyme (Avi-huARG2-His10) (human, UniProt P78540 23-354, biotinylated)
T2 construct: also called avi-Arg2-His10; bio-ARG2
T2 chain: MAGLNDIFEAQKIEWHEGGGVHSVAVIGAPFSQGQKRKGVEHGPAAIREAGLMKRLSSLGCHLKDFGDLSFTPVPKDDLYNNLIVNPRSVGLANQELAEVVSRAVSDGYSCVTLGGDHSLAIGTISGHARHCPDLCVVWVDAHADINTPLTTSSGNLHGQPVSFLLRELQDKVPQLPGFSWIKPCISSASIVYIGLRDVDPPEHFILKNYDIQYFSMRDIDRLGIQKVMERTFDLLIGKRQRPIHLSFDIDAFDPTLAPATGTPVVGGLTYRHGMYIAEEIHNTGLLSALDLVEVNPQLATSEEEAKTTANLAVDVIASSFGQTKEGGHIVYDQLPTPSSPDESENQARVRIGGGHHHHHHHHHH


Columns and labels:
[1] = target: T1, recombinant human trimeric ARG2 enzyme …; test: cell-based or functional assay
[2] = target: T2, biotinylated recombinant human trimeric …; test: HTRF epitope competition, scFv titrated, competitor C0020187 IgG, on biotinylated human trimeric ARG2

Row | Binder | Trimeric human ARG2 EIA IC50 [1] [nM] | IC50 [2] [nM]
1 | C0021017 scFv (scFv, V domains shown, scFv) VH: EVQLLESGGGLVQPGGSLRLSCAASGFTFYPEYELWVRQAPGKGLEWVSAISGSGGSTYYADSVKGRFTISRDNSKNTLYLQMNSLRAEDTAVYYCARLRADLGLYMDLWGRGTLVTVSS VL: QSVLTQPPSVSAAPGQKVTISCSGSSSNIGNHYVSWYQQLPGTAPKLLIYDNSERPSGIPDRFSGSKSGTSATLGITGLQTGDEADYYCGTWDSSLSALVFGGGTKLTVL | 226 | 122
2 | C0021021 scFv (scFv, V domains shown, scFv) VH: EVQLLESGGGLVQPGGSLRLSCAASGFTFSSYAMSWVRQAPGKGLEWVSSILFSPGSTYYADSVKGRFTISRDNSKNTLYLQMNSLRAEDTAVYYCARLRADLGLYMDLWGRGTLVTVSS VL: QSVLTQPPSVSAAPGQKVTISCSGSSSNIGNHYVSWYQQLPGTAPKLLIYDNSERPSGIPDRFSGSKSGTSATLGITGLQTGDEADYYCGTWDSSLSALVFGGGTKLTVL | 151 | 58.7
3 | C0021032 scFv (scFv, V domains shown, scFv) VH: EVQLLESGGGLVQPGGSLRLSCAASGFTFSSYAMSWVRQAPGKGLEWVSAYGYGIGSTYYADSVKGRFTISRDNSKNTLYLQMNSLRAEDTAVYYCARLRADLGLYMDLWGRGTLVTVSS VL: QSVLTQPPSVSAAPGQKVTISCSGSSSNIGNHYVSWYQQLPGTAPKLLIYDNSERPSGIPDRFSGSKSGTSATLGITGLQTGDEADYYCGTWDSSLSALVFGGGTKLTVL | 211 | 67
4 | C0021061 scFv (scFv, V domains shown, scFv) VH: EVQLLESGGGLVQPGGSLRLSCAASGFTFSSYAMSWVRQAPGKGLEWVSAKPTDAGSTYYADSVKGRFTISRDNSKNTLYLQMNSLRAEDTAVYYCARLRADLGLYMDLWGRGTLVTVSS VL: QSVLTQPPSVSAAPGQKVTISCSGSSSNIGNHYVSWYQQLPGTAPKLLIYNTVYPKSGIPDRFSGSKSGTSATLGITGLQTGDEADYYCGTWDSSLSALVFGGGTKLTVL | 110 | 101
5 | C0021089 scFv (scFv, V domains shown, scFv) VH: EVQLLESGGGLVQPGGSLRLSCAASGFTFPYEYWSWVRQAPGKGLEWVSAISGSGGSTYYADSVKGRFTISRDNSKNTLYLQMNSLRAQDTAVYYCARLRADLGLYMDLWGRGTLVTVSS VL: QSVLTQPPSVSAAPGQKVTISCSGSSSNIGNHYVSWYQQLPGTAPKLLIYDNSERPSGIPDRFSGSKSGTSATLGITGLQTGDEADYYCGTWDPTVSRLVFGGGTKLTVL | 71.5 | 133
6 | C0021092 scFv (scFv, V domains shown, scFv) VH: EVQLLESGGGLVQPGGSLRLSCAASGFTFSRYAMSWVRQAPGKGLEWVSAHTHSPGSTYYADSVKGRFTISRDNSKNTLYLQMNSLRAEDTAVYYCARLRADLGLYMDLWGRGTLVTVSS VL: QSVLTQPPSVSAAPGQKVTISCSGSSSNIGNHYVSWYQQLPGTAPKLLIYNSVARPSGIPDRFSGSKSGTSATLGITGLQTGDEADYYCGTWDSSLSALVFGGGTKLTVL | 159 | 130
7 | C0021097 scFv (scFv, V domains shown, scFv) VH: EVQLLESGGGLVQPGGSLRLSCAASGFTFSSYAMSWVRQAPGKGLEWVSAISYHPGSTYYADSVKGRFTISRDNSKNTLYLQMNSLRAEDTAVYYCARLRADLGLYMDLWGRGTLVTVSS VL: QSVLTQPPSVSAAPGQKVTISCSGSSSNIGNHYVSWYQQLPGTAPKLLIYNTFARPSGIPDRFSGSKSGTSATLGITGLQTGDEADYYCGTWDSSLSALVFGGGTKLTVL | 99.1 | 27.5
8 | C0021098 scFv (scFv, V domains shown, scFv) VH: EVQLLESGGGLVQPGGSLRLSCAASGFTFSSYAMSWVRQAPGKGLEWVSSSTYGAGSTYYADSVKGRFTISRDNSKNTLYLQMNSLRAEDTAVYYCARLRADLGLYMDLWGRGTLVTVSS VL: QSVLTQPPSVSAAPGQKVTISCSGSSSNIGNHYVSWYQQLPGTAPKLLIYNSDAPMSGIPDRFSGSKSGTSATLGITGLQTGDEADYYCGTWDSSLSALVFGGGTKLTVL | 134 | 48.3
9 | C0021118 scFv (scFv, V domains shown, scFv) VH: EVQLLESGGGLVQPGGSLRLSCAASGFTFSSYAMSWVRQAPGKGLEWVSASLTNPGSTYYADSVKGRFTISRDNSKNTLYLQMNSLRAEDTAVYYCARLRADLGLYMDLWGRGTLVTVSS VL: QSVLTQPPSVSAAPGQKVTISCSGSSSNIGNHYVSWYQQLPGTAPKLLIYDNSERPSGIPDRFSGSKSGTSATLGITGLQTGDEADYYCATYDTNLSALVFGGGTKLTVL | 84.1 | 41.7
10 | C0021124 scFv (scFv, V domains shown, scFv) VH: EVQLLESGGGLVQPGGSLRLSCAASGFTFSSYAMSWVRQAPGKGLEWVSAISYHPGSTYYADSVKGRFTISRDNSKNTLYLQINSLRAEDTAVYYCARLRADLGLYMDLWGRGTLVTVSS VL: QSVLTQLPSVSAAPGQKVTISCSGSSSNIGNHYVSWYQQLPGTAPKLLIYDNSERPSGIPDRFSGSKSGTSATLGITGLQTGDEADYYCGTWDSDRVNLEFGGGTKLTVL | 375 | 50.5
11 | C0021131 scFv (scFv, V domains shown, scFv) VH: EVQLLESGGGLVQPGGSLRLSCAASGFTFPYDYMGWVRQAPGKGLEWVSAISGSGGSTYYADSVKGRFTISRDNSKNTLYLQMNSLRAEDTAVYYCARLRADLGLYMDLWGRGTLVTVSS VL: QSVLTQPPSVSAAPGQKVTISCSGSSSNIGNHYVSWYQQLPGTAPKLLIYDNSERPSGIPDRFSGSKSGTSATLGITGLQTGDEADYYCGTWDELTSNLVFGGGTKLTVL | 251 | 45.7
12 | C0021135 scFv (scFv, V domains shown, scFv) VH: EVQLLESGGGLVQPGGSLRLSCAASGFAFRYEYIQWVRQAPGKGLEWVSAISGSGGSTYYADSVKGRFTISRDNSKNTLYLQMNSLRAEDTAVYYCARLRADLGLYMDLWGRGTLVTVSS VL: QSVLTQPPSVSAAPGQKVTISCSGSSSNIGNHYVSWYQQLPGTAHKLLIYDNSERPSGIPDRFSGSKSGTSATLGITGLQTGDEADYYCGTWDSSLSALVFGGGTKLTVL | 220 | 52
13 | C0021139 scFv (scFv, V domains shown, scFv) VH: EVQLLESGGGLVQPGGSLRLSCAASGFTFQYDYQVWVRQAPGKGLEWVSAISGSGGSTYYADSVKGRFTISRDNSKNTLYLQMNSLRAEDTAVYYCARLRADLGLYMDLWGRGTLVTVSS VL: QSVLTQPPSVSAAPGQKVTISCSGSSSNIGNHYVSWYQQLPGTAPKLLIYDNSERTSGIPDRFSGSKSGTSATLGITGLQTGDEADYYCGTWDELTSNLVFGGGTKLTVL | 188 | 40.1
14 | C0021022 scFv (scFv, V domains shown, scFv) VH: EVQLLESGGGLVQPGGSLRLSCAASGFTFSSYAMSWVRQAPGKGPEWVSAISGFSPYYADSVKGRFTISRDNSKNTLYLQMNSLRAEDTAVYYCARLRADLGLYMDLWGRGTLVTVSS VL: QSVLTQPPSVSAAPGQKVTISCSGSSSNIGNHYVSWYQQLPGTAPKLLIYDNSERPSGIPDRFSGSKSGTSATLGITGLQTGDEADYYCGTWDSSLSALVFGGGTKLTVL | 106 | 65.9
15 | C0021065 scFv (scFv, V domains shown, scFv) VH: EVQLLESGGGLVQPGGSLRLSCAASGFTFSSYAMSWVRQAPGKGPEWVSAISGFSPYYADSVKGRFTISRDNSRNTLYLQMNSLRAEDTAVYYCARLRADLGLYMDLWGRGTLVTVSS VL: QSVLTQPPSVSAAPGQKVTISCSGSSSNIGNHYVSWYQQLPGTAPKLLIYDTDHMASGIPDRFSGSKSGTSATLGITGLQTGDEADYYCGTWDSSLSALVFGGGTKLTVL | 143 | 74.7
16 | C0021096 scFv (scFv, V domains shown, scFv) VH: EVQLLESGGGLVQPGGSLRLSCAASGFTFSSYAMSWVRQAPGKGLEWVSAISGYSGYYADSVKGRFTISRDNSKNTLYLQMNSLRAEDTAVYYCARLRADLGLYMDLWGRGTLVTVSS VL: QSVLTQPPSVSAAPGQKVTISCSGSSSNIGNHYVSWYQQLPGTAPKLLIYNTERRMSGIPDRFSGSKSGTSATLGITGLQTGDEADYYCGTWDSSLSALVFGGGTKLTVL | 57.8 | 35.2
17 | C0021101 scFv (scFv, V domains shown, scFv) VH: EVQLLESGGGLVQPGGSLRLSCAASGFTFSSYAMSWVRQAPGKGPEWVSAISGFSPYYADSVKGRFTISRDNSKNTLYLQMNSLRAEDTAVYYCARLRADLGLYMDLWGRGTLVTVSS VL: QSVLTQPPSVSAAPGQKVTISCSGSSSNIGNHYVSWYQQLPGTAPKLLIYNNRSPTSGIPDRFSGSKSGTSATLGITGLQTGDEADYYCGTWDSSLSALVFGGGTKLTVL | 64.8 | 40.8
18 | C0021129 scFv (scFv, V domains shown, scFv) VH: EVQLLESGGGLVRPGGSLRLSCAASGFTFSSYAMSWVRQAPGKGLEWVSAISGFSPFYADSVKGRFTISRDNSKNTLYLQMNSLRAEDTAVYYCARLRADLGLYMDLWGRGTLVTVSS VL: QSVLTQPPSVSAAPGQKVTISCSGSSSNIGNHYVSWYQQLPGTAPKLLIYDNSERPSGIPDRFSGSKSGTSATLDITGLQTGDEADYYCGTWDETAAELVFGGGTKLTVL | 313 | 45
